Target: the molecule itself
Assay: crystal structure; ZAN/U:GSH crystals, hanging drops at 22°C, 30% PEG 6000, 0.1 M Bis-Tris pH 6.5, 1 mM β-ME; soaked with DDE (not seen in the maps); 2.3 Å; two biological dimers in the asymmetric unit

B1: GSTE2 ZAN/U variant (epsilon-class glutathione-S-transferase GSTE2 of Anopheles gambiae, allele ZAN/U 1C) (enzyme, UniProt Q7PVS6 1-221, looked up)
chain: MSNLVLYTLHLSPPCRAVELTAKALGLELEQKTINLLTGDHLKPEFVKLNPQHTIPVLDDNGTIITESHAIMIYLVTKYGKDDSLYPKDPVKQARVNSALHFESGVLFARMRFTFERILFFGKSDIPEDRVEYVQKSYELLEDTLVDDFVAGPTMTIADFSCISTISSIMGVVPLEQSKHPRIYAWIDRLKQLPYYEEANGGGGTDLGKFVLAKKEENAKA
notes: Cloned from full-length cDNA; the model runs to Ala221; One of GenBank JX840597-JX840599; Crystallised as the complex with glutathione (GSH, 1:1.2 molar ratio); biological dimer; Natural allelic variant; I114T is written against the Kisumu (ancestral) allele; also called Gste2-114T; ZAN/U:GSH; not shown: His6, N-terminal, cleaved; SUMO, N-terminal, cleaved
In the case of B1, the “stoichiometry N” value is reported as 2.
